Laboratory results taken from publication PMC3439924 (Nucleic Acids Research, 2012).
Positions count from the first letter of the chain named. Names and notes keep the numbering of the source. Read-outs that look alike come from different tables or passages of the source.

How the values were obtained:
RNase T E92G [1] = target: T1, RNase T E92G (Escherichia coli, UniProt P30014 1-215, E92G); assay: X-ray crystallography
T1 sequence: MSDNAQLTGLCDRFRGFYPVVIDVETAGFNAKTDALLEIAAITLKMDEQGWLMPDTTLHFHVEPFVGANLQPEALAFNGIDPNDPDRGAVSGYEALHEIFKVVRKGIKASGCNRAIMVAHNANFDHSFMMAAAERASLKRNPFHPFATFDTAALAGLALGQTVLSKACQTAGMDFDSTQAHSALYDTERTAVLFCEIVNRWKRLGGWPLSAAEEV

RNase T [2] = target: T2, RNase T (Escherichia coli, UniProt P30014 1-215); assay: X-ray crystallography
T2 sequence: T1 sequence with G92E

RNase T [3] = target: T2, RNase T; assay: X-ray crystallography; remark: listed apart in the source
RNase T E92G [4] = target: T1, RNase T E92G; assay: X-ray crystallography; remark: listed apart in the source
crystal structure = target: the molecule itself; assay: crystal structure

## GGCCCTCTTTAGGGCCTT (structured_DNA) [stem-loop DNA, 2-nt 3'-overhang]
RNase T E92G [1]
  binding result: binds

## TTATAAA (ssDNA) [ssDNA 3'-end AAA]
RNase T [2]
  binding result: binds

## TTACACC (ssDNA) [ssDNA 3'-end ACC]
RNase T [3]
  binding result: binds

## TTACAAC (ssDNA) [ssDNA 3'-end AAC]
RNase T [3]
  binding result: binds

## GCTTA (ssDNA) [ssDNA 3'-end TTA]
RNase T E92G [4]
  binding result: binds

B1: RNase T E92G mutant (E. coli) (enzyme, UniProt P30014 1-215, looked up)
chain: T1 sequence
Crystal structure
  binding result: binds

B2: RNase T (wild-type, E. coli) (enzyme, UniProt P30014 1-215, looked up)
chain: T1 sequence with G92E
Crystal structure
  binding result: binds

## TTACAAT (ssDNA) [ssDNA 3'-end AAT]
RNase T E92G [4]
  binding result: binds
